test: soluble on expression in E. coli; label from the status in PepcDB or PDB records

| Sequence | soluble on expression in E. coli |
| --- | --- |
| MGSDKIHHHHHHMLEGIFDINHVFDEEGIKTLKRFGWDGSVAVQNHNEYSEEKINTAVEYGENCEFKVYSGVKISTKNQNEMEKAVKKYRNKVDILLVEGGDVKINRRVLEMNDVDILSTPELNRMDNGLDHILARLGSTNRVAVELNFGNLLKSKNYDRSKILWAFQRNLKLSKKYDTPVVISSGANDIYGIKAPGDLRGFLNTVADPLYSKKIIETTSKIIDYRLYLKNKNVLMPGLEIVEE | not soluble |
| MGSDKIHHHHHHMRIFTASLATETNTFSPVPTDRASFEMAFYAAPGKHPETPTLCSSPIVALRKRAAAEGLTVIEGTATWAEPGGLLQRQAFEELRDEILDQLKAAMPVDAVVLGLHGAMVAQGYDDCEGDLLERVRAIVGPGVLVASEFDPHSHLTPKRVQNLNIFASFLEFPHTDFYERGEHVVELALDALKGRTKPVISTFDCRMIAVLPTSKEPMRSFVDRIKALQGKDGILSISVIHGFMAADVPEMGTRILVVTDNDPQAGAALAAALGRELIAMREQTSMAMLDTDQGIDRALAAHAANPSKPAVIADVWDNPGGGVAGDGTYILRRLIERGVNNAGIATIWDPIAVTFCHAAGEGAVIDLRFGGKSGPLGGEPIDARVTVLKVANEGWQSFGPSRVTLGPSAVVRIEDTGIDIILNTNRTQTFEPDIFSNLGIDPMTKNVLVVKSTNHFHAGFAPVAAEIIYVDAPSSYPSNPRTTNYRKLNRAIWPRVEDPW | not soluble |
| MGSDKIHHHHHHMLGMPTVLGVVLRMGRELWWCSLRPVSMLKEYAYCPRVAYYMEVLRPSYRPTEPMNLSREIYSVDHVRGILRSSGFRIVKEEWAVPLRSKRLGLQGVADGVVVEGSLGIIVVEAKLSVRSNRWLHTRGRHVIFQAAAYALALEETRGYSVDYLAIVSLEDSKTYVVKMSPSLRRDVIRLADDMNKTLDDGLEPPPKPGRKCVACRFRRVCQPWVAERGSER | not soluble |
| MGSDKIHHHHHHMSRYVIRTYKVPVPVELYPLCSELNRIAARIYNKTMSLVKKIKNKKGFWLSPNTAQKYILRWSSAIDIHTHSKQAMVQLYFQALNSYFVAVKTNPHAKPPYKRKNFLPFIWKNQAIKLLPDGKVKLSMGRNREPFVIPTTLPAGTTIRQAKLVYEAGRYYLHLAIEVKSEHKRGQSQKVMSVDVGILRPITCFDGSEVISYHGGVLNSILRYRNKRLADIQRALSRCQKGSRRYKKLSRAKRRVLYKTRNQINDVLHKITSHFIGLCVQKNIGTIVVGDITNIRERTNGNDNFNQKLHQWAFRKLMSQIEYKAQIFGIEVVRISEAHTSKTCPVCGTQNRPSGRNYKCAGCGFEYHRDGVGAINIWKRYLGTKSQVVAGLAPARGVRFNPHLCGHGAISAPWKAA | not soluble |
| MLMGMKPLRLCAILASIPPLAMVVRGRIRPKNSRKRFPTIVVLGTAQYDGVPSRQFAARLKWAAEQWHTQRSQKVVTVGGKLPEDRFTEAAVAREYLIKEHVDSDLIVAVEQGHDTRGSLRAALSELEQPILIITDPNHSLRAELIARSEGIAAWASSTPYCPTTFPRWQWWWTFVHEQGGLCVVLIELVAGKDVAQKVEDALRRLQAWLRPSRRARHEQLREERLEHHHHHH | not soluble |
| MASTKSELIERLATQQSHIPAKTVEDAVKEMLEHMASTLAQGGSGGLTKAEMSEYLFDKLGLSKRDAKELVELFFEEIRRALENGEQVELSGFGNFDLRDKNQRPGRNPKTGEDIPITARRVVTFRPGQKLKSRVENAGGGERIEIRGFGSFSLHYRAPRTGRNPKTGDKVELEGKYVPHFKPGKELRDRANIYGGSGHHHHHH | soluble |
| MSEKPLTKTDYLMRLRRCQTIDTLERVIEKNKYELSDNELAELTMNKLYDKIPSSVWKFIRLAVFYSAADHR | not soluble |
| MIQCEECLCWQHSVCMGLLEESIPEQYICYICRDPPGQRWSAKYRYDKEWLNNGRMCGLSFFKENYSHLNAKKIVSTHHLLADVYGVTEVLHGLQLKIGILKNKHHPDLHLWACSGKRKDQDQIIAGVEKKIAQDTVNREEKKYVQNHKEPPRLPLKMEGTYITSEHSYQKPQSFGQDCKSLADPGSSDDDDVSSLEEEQEFHMRSKNSLQYSAKEHGMPEKNPAEGNTVFVYNDKKGTEDPGDSHLQWQLNLLTHIENVQNEVTSRMDLIEKEVDVLESWLDFTGELEPPDPLARLPQLKRHIKQLLIDMGKVQQIATLCSV | soluble |
| MRVYRVKGEVLVAVCDSDIVGKTFREGDLKIEVKESFYGSEEVGEEEVKRALRNATIANITGKKAVELAARIGIIDRNRVLYIGGCPHAQMVVM | not soluble |
| MGSDKIHHHHHHMSTDKLAIIAVTERGRDLAITLTKTVAATIFVPEKHCTEQTNSLTPDFGTAMREIFTKYQALICIMATGIAVRTLAPVIEDKLSDPAVLVMDEHGKFIISLLSGHVGGANELTERIATITGGAAVITTATDRANVAAIDNIAKQLNGYLPDFKATTKRINGLLAAGKEVGLYIDEPLEIDTRGFTMEEVSPQVYISTKYKLQVATHERIQLVPKQFILGVGCRKGVSAETIDAAFTHFCEQENIHPRAFREIHSITLKAEEPAILHLAEKWHVPFIVHPAEELQTVAGKYPTSAFVQKTVQVGNVALSSADIGSNGNVVTSRFAENGVTFAAGKLTKNSEVAK | not soluble |
| MKTLIARHKAGEHIGICSVCSAHPLVIEAALAFDRNSTRKVLIEATSNQVNQFGGYTGMTPADFREFVFAIADKVGFARERIILGGDHLGPNCWQQENVDAAMEKSVELVKAYVRAGFSKIHLDASMSCAGDPIPLAPETVAERAAVLCFAAESVATDCQREQLSYVIGTEVPVPGGEASAIQSVHITHVEDAANTLRTHQKAFIARGLTEALTRVIAIVVQPGVEFDHSNIIHYQPQEAQALAQWIENTRMVYEAHSTDYQTRTAYWELVRDHFAILKVGPALTFALREAIFALAQIEQELIAPENRSGCLAVIEEVMLDEPQYWKKYYRTGFNDSLLDIRYSLSDRIRYYWPHSRIKNSVETMMVNLQGVDIPLGMISQYLPKQFERIQSGELSAIPHQLIMDKIYDVLRAYRYGCAE | soluble |
| RLQSRILAGLLHTVVRYRRKVVRDNLTRCFPEKSLQEIRRIERRFYYNFTYQILSSFKLLTYSQAQLRRHISFENLDVLIRLRAEGHPAILLMMGHFGNWEYFSGSQAIIKDLGLQIYQIFRPLKSTSSDRLMHRIRERFGSRGIAKHDVPRELLRLVRNPIPTETP | not soluble |
| MGSDKIHHHHHHMFNGRPFPVDAFPKIIRNAIYEVEQHTQAPQGLIAASALGVISLACQNRIDVCRLNNLRGPVSLFLMTLAESGERKSTVDKLLMKPLYQLEEDLFEKYTHDLTAWRNDEAIFNIEKKALMSKLKSDIRRNKDHLATNERLKELLTTNPKAPVRFKFLFNDATPAAIKAHLCGHWRSVGIMSDEAGIIFNGYTLNELPFINKMWDGSIFTVERKNEPEKLIRDARITLSLMVQPNVFKGYIDRKGDMAKGIGFFARCLMCQPASTQGNRKISNPIFSNEHLPVFHQRLMEIVNESIIKINENNRICLRFSAEAERHWIEFYNQVESEMRMIGLLYDFKDYASKMAENMARLAALLHYFSGDGGDISVTAVKAAVEIVAWYIEEYIRLFSKKEEFSLDVSEADELYCWIKDYCTQKFSSCIKKNIILQFGPNKFRNRDKANELIRILISQNKIFISSWGKTKIINITHCVF | not soluble |
| MGHHHHHHSHMKNLFLTSSFKDVVPLFTEFESNLQGKTVTFIPTASTVEEVVFYVEAGKKALEKLGLFVVELDVATESLDHIAATLRKNDFIYVTGGNTFFLLQELKRTGADKLILEEIAAGKLYIGESAGAVITSPNIAYIQSMDSPKKAEQLTNYDALNLVDFCTLPHYNNIPFKKITQKIVADYTKSLKMHPISNHEAILVRDEEVITKLANGKTD | soluble |
| MGSDKIHHHHHHMRIILYTGKGGVGKTSISAATALQSAKQGLKTLVMSTDPAHSLGDSFGIKLSSEPLEIRENLWAQEINTIYEMEKGWGKLQKYITLLFTSKAADDITTEELTMFPGMEDLISLLRVLDYYKQNTYDVIIIDCAPTGETLAMLSFPDMLGWWMEKLFPIKRKVLKVVRPVAQPLLGVPLPTDDIMDELTNTLEQLGEMRDILSNRDVTSIRIVVNPEKMVIKEAQRSFTYLNLYDYNVDAIMINRVIPNTVIDPYFQAWKDTQKKYKTLIQNSFDPLPIYEAPMFEQEVVGLPMLERVGDALFKEDYCPTEVKFNGRTQYVKKDGDEYIFVLSIPFSNKSELALNQKGDELIIRAGSVKRNITLPKTLTHLSIQGAKFEDDVLNIRFGGVVHA | not soluble |
| MSYSIVRVSKVKSGTNTTGIQKHVQRENNNYENEDIDHSKTYLNYDLVNANKQNFNNLIDEKIEQNYTGKRKIRTDAIKHIDGLITSDNDFFDNQTPEDTKQFFEYAKEFLEQEYGKDNLLYATVHMDEKTPHMHYGVVPITDDGRLSAKEVVGNKKALTAFQDRFNEHVKQRGYDLERGQSRQVTNAKHEQISQYKQKTEYHKQEYERESQKTDHIKQKNDKLMQEYQKSLNTLKKPINVPYEQETEKVGGLFSKEIQETGNVVISQKDFNEFQKQIKAAQDISEDYEYIKSGRALDDKDKEIREKDDLLNKAVERIENADDNFNQLYENAKPLKENIEIALKLLKILLKELERVLGRNTFAERVNKLTEDEPKLNGLAGNLDKKMNPELYSEQEQQQEQQKNQKRDRGMHLLEHHHHHH | soluble |
| MKHDHFIVQSPAAPAQQLLLLFHGVGDNPVSMGQIGSWFAPQFPDALIVSIGGVEPCGPNGRQWFSLQGVTEENRQQRIDAIMPTFIEIVRYWQEKSGVSPLATALIGFSQGAIMSLESIKAAPDLASRVIAFNGRYATLPETATTATTIHLIHGGEDRVIDLAWAVSAEEALQQAGGDVTLDIVDDLGHAIDDRSMQLAIERLRYTVPKHY | not soluble |
| MNTAHGSDVTRPLDWLVSNFASDVPGVSHAVLVSADGLLMAASAHLPIDRAEQLAAVTSGLASLSAGVSRLFEGGGVLQSVVEMQHGYLLLMSVGDGSHLATLTDAECDIGQVGYEMAILVDRVGASVQATARTPQGL | not soluble |
| MKTFKAVRFQIVNEHGRIIEYELEDGVIINKEESGTGWLLEIVISNEHYETFKEYQDNEQLLDIRVVITRPANDPALFESTVKSIKNFKTTMSIVFECHIYTLRQQYAESLLEQLIDDGLSGEELKKSFNRMMQSKPKLKDEKLEELEHHHHHH | soluble |
| MGSDKIHHHHHHMRVGIIGGGFGLAVQAPIINTHPKMNVSAISTMIRHQVPKNLSTADDSPVHYTDWTKMLDLEELDLVFVSSLPIYHFEMVKYALNKGIHVVCEKPFTMNSVESEELLRLSSDTNTKVFIDFEWRYHPARQKVKELISEVGDILHFEYHISASQYQKLQTNKRGWMGEKQKFGGMLGALGTHMVDCLRWLIQDEIITINGFIHTHVPEGPEELRDSDDAFFIHGKIEGNCTFSIQLISGIHHGFGSNLKVFGSLGTINLIDDKTLFFGKASESLEEIKIETYTQTIPPLSSEAKAYYPAFYPFLDKVYENIIFNKSDKDLPTIVDGHENQIIIDNVLSN | not soluble |
| MIGKKSFQTNVYRMSKFDTYIFNNLYINDYKMFWIDSGIAKLIDKNCLVSYEINSSSIILLKKNSIQRFSLTSLSDENINVSVITISDSFIRSLKSYILGDLMIRNLYSENKDLLLWNCEHNDIAVLSEVVNGFREINYSDEFLKVFFSGFFSKVEKKYNSIFITDDLDAMEKISCLVKSDITRNWRWADICGELRTNRMILKKELESRGVKFRELINSIRISYSISLMKTGEFKIKQIAYQSGFASVSYFSTVFKSTMNVAPSEYLFMLTGVAEK | soluble |
